Measured values from US20120301899A1 (AGENCY FOR SCIENCE TECHNOLOGY AND RESEARCH, published 2012).

Biological target: T1, podocalyxin-like protein-1 (PODXL) (human, UniProt O00592 23-558)
T1 construct: whole, on cells; In the flow cytometry experiments the target is undifferentiated hESC; also called PCLPI; Podocalyxin-like protein 1 precursor
T1 sequence (looked up): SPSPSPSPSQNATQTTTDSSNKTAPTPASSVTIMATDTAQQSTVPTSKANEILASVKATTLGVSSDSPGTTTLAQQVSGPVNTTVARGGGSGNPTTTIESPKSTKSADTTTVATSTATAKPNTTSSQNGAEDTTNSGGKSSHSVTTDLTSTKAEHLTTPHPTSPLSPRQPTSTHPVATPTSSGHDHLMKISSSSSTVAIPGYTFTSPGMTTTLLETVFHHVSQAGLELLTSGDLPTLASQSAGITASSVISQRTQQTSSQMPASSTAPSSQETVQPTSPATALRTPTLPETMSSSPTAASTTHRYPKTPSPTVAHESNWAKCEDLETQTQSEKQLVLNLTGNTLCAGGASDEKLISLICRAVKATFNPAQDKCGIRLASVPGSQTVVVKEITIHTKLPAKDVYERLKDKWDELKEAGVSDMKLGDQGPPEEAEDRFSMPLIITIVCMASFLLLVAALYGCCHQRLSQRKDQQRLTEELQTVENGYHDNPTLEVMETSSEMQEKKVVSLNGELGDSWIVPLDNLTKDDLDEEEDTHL
Assay: kinetics of binding to PODXL on the surface of hESCs; method not stated

Kd: 40 nM | koff: 0.0029 s⁻¹ | kon: 71000 M⁻¹ s⁻¹
B1: monoclonal antibody mAb 84 (antibody, V domains shown)
VH: QVQLQQSGGGLVQPGGSMKLSCVASGFTFSNYWMNWVRQSPEKGLEWVAEIRLKSNNYATHYAESVKGRFTISRDDSKSSVYLQMNNLRAEDTGIYYCTGERAWGQGTTVTVSS
VL: DIELTQSPAIMSASPGEKVTMTCSASSSVNYMYWYQQKPGSSPRLLIYDTSNLASGVPVRFSGSGSGTSYSLTISRMEAEDAATYYCQQWSSYPYTFGGGTKLEIKR
